Legend:
[1] = target: human IGF-1 receptor (IGF-1R) on CHO-K1 cells stably transfected with pcDNA3-IGF-1R (human) (UniProt P08069); experiment: radioligand binding; association kinetics; CHO-R+ cells (10^7/mL) in HEPES binding buffer pH 7.6 with about 0.03 nM 125I-labelled ligand at 15 °C; cells pelleted at time points; fit: association kinetics, one concentration of hot (GraphPad Prism 5) with the dissociation rate set; apparent constants
[2] = target: human IGF-1 receptor (IGF-1R) on CHO-K1 cells stably transfected with pcDNA3-IGF-1R (human) (UniProt P08069); experiment: radioligand binding; dissociation kinetics without cold ligand; CHO-R+ cells (3x10^7/mL) preincubated with about 0.03 nM 125I-labelled ligand at 15 °C ([…] analog and IGF-1, 7 h insulin), washed, diluted 40 times, 15 °C; one phase exponential decay
[3] = target: human insulin receptor isoform A (IR-A) on IM-9 lymphocytes (human (endogenous in IM-9)) (UniProt P06213); experiment: radioligand binding; dissociation kinetics without cold ligand; IM-9 cells (3x10^7/mL) preincubated with about 0.03 nM 125I-labelled ligand at 15 °C ([…] insulin and analog, 4 h IGF-1), washed, diluted 40 times, 15 °C; one phase exponential decay
[4] = target: human insulin receptor isoform A (IR-A) on IM-9 lymphocytes (human (endogenous in IM-9)) (UniProt P06213); experiment: radioligand binding; association kinetics; IM-9 cells (10^7/mL) in HEPES binding buffer pH 7.6 with about 0.03 nM 125I-labelled ligand at 15 °C; cells pelleted at time points; fit: association kinetics, one concentration of hot (GraphPad Prism 5) with the dissociation rate set; apparent constants
[5] = target: IGF-1 receptor (in transfected mouse embryonic fibroblasts R+39) (human) (UniProt P08069); experiment: radioligand binding; whole-cell receptor-binding assay on IGF-1R null mouse embryonic fibroblasts stably transfected with human IGF-1R; each binding curve in duplicate, Kd from at least three curves; details in the supporting information
[6] = target: insulin receptor isoform B (human) (UniProt P06213); experiment: radioligand binding; whole-cell receptor-binding assay on IGF-1R null mouse embryonic fibroblasts stably transfected with human IR-B; each binding curve in duplicate, Kd from at least three curves; details in the supporting information
[7] = target: IGF-1 receptor (in transfected mouse embryonic fibroblasts R+39) (human) (UniProt P08069)
[8] = target: insulin receptor isoform A (human (endogenous in IM-9)) (UniProt P06213); experiment: radioligand binding; whole-cell receptor-binding assay on human IM-9 lymphocytes (containing IR-A); each binding curve in duplicate, Kd from at least three curves; details in the supporting information

[Gly^B31, Tyr^B32]-insulin, sequence (P01308 90-110): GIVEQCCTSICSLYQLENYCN
[Gly^B31, Tyr^B32]-insulin, sequence (P01308 other isoform, or with tags, fused parts or gaps): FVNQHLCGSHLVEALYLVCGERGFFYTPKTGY

125I-[D-HisB24, GlyB31, TyrB32]-insulin (ligand)
kon [1]: 7.83e+07 M⁻¹ s⁻¹
koff [2]: 0.000107 s⁻¹
koff [3]: 2.83e-05 s⁻¹
kon [4]: 5.87e+07 M⁻¹ s⁻¹

[D-His^B24, Gly^B31, Tyr^B32]-insulin (from UniProt P01308 90-110) (ligand)
Kd [5]: 0.89 nM

[D-His^B24]-des-(B27-B30)-tetrapeptide-B26-carboxamide insulin (from UniProt P01308 90-110) (ligand)
Kd [6]: 0.3 nM

[Gly^B31, Tyr^B32]-insulin (from UniProt P01308 90-110; P01308 25-54) (ligand)
autophosphorylation of IGF-1R (immunoblot), IGF-1R-transfected mouse fibroblasts, 10 nM ligand, against insulin; not significant in the analysis of variance [7]: 3 fold

[Tyr^B25, Phe^B26, Asn^B27, Lys^B28, Pro^B29, Gly^B31, Tyr^B32]-insulin (from UniProt P01308 90-110) (ligand)
autophosphorylation of IGF-1R (immunoblot), IGF-1R-transfected mouse fibroblasts, 10 nM ligand, against insulin; not significant in the analysis of variance [7]: 3 fold

human insulin-like growth factor 1 (from UniProt P05019 49-118) (ligand)
Kd [8]: 31.5 nM
Kd [6]: 224 nM

insulin-like growth factor 2 (from UniProt P01344 25-91) (ligand)
Kd [8]: 2.92 nM
Kd [6]: 35.5 nM
Kd [5]: 2.32 nM

Source: PMC6204900
